Data from publication PMC1166539, “Determination of thermodynamic parameters of Xerocomus chrysenteron lectin interactions with N-acetylgalactosamine and Thomsen-Friedenreich antigen by isothermal titration calorimetry” (BMC Biochemistry, 2005).

B1: Xerocomus chrysenteron lectin with histidine tag and TEV site (natural protein, UniProt Q8WZC9 1-143, looked up)
chain: MSYSITLRVYQTNRDRGYFSIVEKTVWHFANGGTWSEANGAHTLTQGGSGTSGVLRFLSTKGERITVAVGVHNYKRWCDVVTGLKPDETALVINPQYYNNGGRDYVREKQLAEYSVTSAIGTKVEVVYTVAEGNNLEANVIFS
notes: lectin from the mushroom Xerocomus chrysenteron (XCL); expressed as a fusion of histidine tag, TEV site and XCL; The fits used the monomer concentration; also called XCL; XCLtag
B2: fetuin from fetal bovine serum (natural protein, UniProt P12763 19-359, looked up)
chain: IPLDPVAGYKEPACDDPDTEQAALAAVDYINKHLPRGYKHTLNQIDSVKVWPRRPTGEVYDIEIDTLETTCHVLDPTPLANCSVRQQTQHAVEGDCDIHVLKQDGQFSVLFTKCDSSPDSAEDVRKLCPDCPLLAPLNDSRVVHAVEVALATFNAESNGSYLQLVEISRAQFVPLPVSVSVEFAVAATDCIAKEVVDPTKCNLLAEKQYGFCKGSVIQKALGGEDVRVTCTLFQTQPVIPQPQPDGAEAEAPSAVPDAAGPTPSAAGPPVASVVVGPSVVAVPLPLHRAHYDLRHTFSGVASVESSSGEAFHVGKTPIVGQPSIPGGPVRLCPGRIRYFKI
modifications: three carbohydrate units O-linked to Thr or Ser residues and three complex glycans N-linked to Asn residues (a fourth O-linked residue may exist); exposed Gal residues linked to sialic acid residues
notes: fetuin (fetuin-A, alpha-2-HS-glycoprotein), bovine, from fetal bovine serum; glycoprotein bearing the Thomsen-Friedenreich antigen motif; also called native fetuin; source: bought: Sigma (from fetal bovine serum)
B3: asialofetuin from fetal bovine serum (natural protein, UniProt P12763 19-359, looked up)
chain: B2 chain
modifications: O-linked and N-linked glycans as in fetuin, but the sialic acid residues are absent
notes: fetuin (fetuin-A, alpha-2-HS-glycoprotein), bovine, from fetal bovine serum, without sialic acids (asialofetuin); Same polypeptide as fetuin; it differs only in lacking sialic acid on the glycans; source: bought: Sigma (from fetal bovine serum)

Key:
[1] = biological target: T1, XCL (XCLtag), Xerocomus chrysenteron lectin (Xerocomellus chrysenteron, UniProt Q8WZC9); experiment: isothermal titration calorimetry; assay type: binding; conditions: 25 mM sodium phosphate pH 7, 27°C
T1 construct: recombinant, E. coli BL21(DE3); homotetramer
T1 sequence (Q8WZC9 1-143): B1 chain

[2] = biological target: B3; experiment: ITC; 2 mM fetuin or asialofetuin titrated (38 injections of 5 ul) into 0.25 mM XCLtag in the cell; 27°C; 25 mM Na2HPO4/NaH2PO4, pH 7; XCL monomer concentration used in the fit; conditions: both partners purified
[3] = biological target: B2; experiment: as above; conditions: both partners purified
[4] = biological target: B1; experiment: as above; conditions: both partners purified
[5] = biological target: B1; experiment: as above; conditions: both partners purified; remark: listed apart in the source

| Molecule | stoichiometry N [4] | dH [5] [kcal/mol] | other results |
| --- | --- | --- | --- |
| CC(=O)N[C@H]1C(O)O[C@H](CO)[C@H](O)[C@@H]1O (some centres unmarked) [N-acetylgalactosamine] |  |  | Ka, M^-1 ([1]; no PEG, per monomer, abstract prints Kd 5.2 μM, inconsistent with this Ka (reciprocal 5.2 mM)): 192 ± 5 |
| CC(=O)N[C@H]1C(O)O[C@H](CO)[C@@H](O[C@@H]2O[C@H](CO)[C@H](O)[C@H](O)[C@H]2O)[C@@H]1O (some centres unmarked) [N-acetyllactosamine] |  |  | Kd ([1]; significant fitting errors stated for Ka below 100 M^-1, read-out: affinity constant (converted)): ~20 mM |
| B1 |  |  | Ka [2]: 2.59e+06 ± 0.6 M⁻¹; Ka [3]: 590000 ± 1.4 M⁻¹ |
| B2 | 0.23 | -21.5 ± 0.5 |  |
| B3 | 0.23 | -16.8 ± 2.5 |  |
